Source: publication PMC11324745

Molecular target: DNA polymerase theta helicase domain (Polθ-hel, residues 1–894) (human), O75417
Experiment: cryo-EM structure
Settings: remark: other sources report otherwise

B1: DNA polymerase theta helicase domain (Polθ-hel, residues 1–894), O75417 1-894 (domain or fragment)
chain: MNLLRRSGKRRRSESGSDSFSGSGGDSSASPQFLSGSVLSPPPGLGRCLKAAAAGECKPTVPDYERDKLLLANWGLPKAVLEKYHSFGVKKMFEWQAECLLLGQVLEGKNLVYSAPTSAGKTLVAELLILKRVLEMRKKALFILPFVSVAKEKKYYLQSLFQEVGIKVDGYMGSTSPSRHFSSLDIAVCTIERANGLINRLIEENKMDLLGMVVVDELHMLGDSHRGYLLELLLTKICYITRKSASCQADLASSLSNAVQIVGMSATLPNLELVASWLNAELYHTDFRPVPLLESVKVGNSIYDSSMKLVREFEPMLQVKGDEDHVVSLCYETICDNHSVLLFCPSKKWCEKLADIIAREFYNLHHQAEGLVKPSECPPVILEQKELLEVMDQLRRLPSGLDSVLQKTVPWGVAFHHAGLTFEERDIIEGAFRQGLIRVLAATSTLSSGVNLPARRVIIRTPIFGGRPLDILTYKQMVGRAGRKGVDTVGESILICKNSEKSKGIALLQGSLKPVRSCLQRREGEEVTGSMIRAILEIIVGGVASTSQDMHTYAACTFLAASMKEGKQGIQRNQESVQLGAIEACVMWLLENEFIQSTEASDGTEGKVYHPTHLGSATLSSSLSPADTLDIFADLQRAMKGFVLENDLHILYLVTPMFEDWTTIDWYRFFCLWEKLPTSMKRVAELVGVEEGFLARCVKGKVVARTERQHRQMAIHKRFFTSLVLLDLISEVPLREINQKYGCNRGQIQSLQQSAAVYAGMITVFSNRLGWHNMELLLSQFQKRLTFGIQRELCDLVRVSLLNAQRARVLYASGFHTVADLARANIVEVEVILKNAVPFKSARKAVDEEEEAVEERRNMRTIWVTGRKGLTEREAAALIVEEARMILQQDLVEM
In the case of B1, the percent of particles in the dimeric form is reported as 95% and the percent of particles in the tetrameric form is reported as 5%.
